Reference: patent US20160243230A1

Target: Vκ4Len(1-22) peptide, P06312
Assay: EuLISA, peptide dried on the plate, 11-1F4 titrated from 100 nM

B1: murine 11-1F4 monoclonal antibody (antibody)
chain 1: QVQLKESGPGLVAPSQSLSITCTVSGFSLSSYGVSWVRQPPGKGLEWLGVIWGDGSTNYHPNLMSRLSISKDISKSQVLFKLNSLQTDDTATYYCVTLDYWGQGTSVTVSS
chain 2: DVVMTQTPLSLPVSLGDQASISCRSSQSLVHRNGNTYLHWYLQKPGQSPKLLIYKVSNRFSGVPDRFSGSGSGTDFTLKISRVEAEDLGLYFCFQTTYVPNTFGGGTKLEIK
EC50: 0.5 nM
